This data set in a line: self-splicing fitness, log relative to wild type (ln ratio); higher = more splicing; Tetrahymena group I intron in knt gene, E. coli kanamycin selection, DiMSum; sequences stand for … in CUCUCU…GGAGGGAAAAGUUAUCAGGCAUGCACCUGGUAGCUAGUCUUUAAACCAAUAGAUUGCAUCGGUUUAAAAGGCAAGACCGUCAAAUUGCGGGAAAGGGGUCAACAGCCGUUCAGUACCAAGUCUCAGGGGAAACUUUGAGAUGGCCUUGCAAAGGGUAUGGUAAUAAGCUGACGGACAUGGUCCUAACCACGCAGCCAAGUCCUAAGUCAACAGAUCUUCUGUUGAUAUGGAUGCAGUUCACAGACUAAAUGUCGGUCGGGGAAGAUGUAUUCUUCUCAUAAGAUAUAGUCGGACCUCUCCUUAAUGGGAGCUAGCGGAUGAAGUGAUGCAACACUGGAGCCGCUGGGAACUAAUUUGUAUGCGAAAGUAUAUUGAUUAGUUUUGGAGUACUCGUGGUCG
The essentials:
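Colonies from six replicate transformations of E. coli BL21(DE3) were pooled and amplicon-sequenced on an Illumina HiSeq 2500. The library placed an intron with all eight P1ex-region nucleotides randomised inside the knt kanamycin-resistance gene on pET-22b(+), and cells grew overnight at 37°C or 30°C on LB agar with or without 25 μg/mL kanamycin (plus 100 μg/mL carbenicillin, 50 μM IPTG, 0.2% rhamnose). Fitness is the DiMSum error-weighted combination of wild-type-normalised replicate fold changes, kanamycin versus none.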

± gives the uncertainty stated by the source.

For the sequence UCCUAGCAAUAUUACGAUGU, the “self-splicing fitness (ln)” value by setting is: (30 °C) -1.49 ± 0.06; (37 °C) -0.553 ± 0.079.

For the sequence UCCUAGCAAUAUUACGAUUC, the “self-splicing fitness (ln)” value (37 °C) is -2.2 ± 0.29. In the case of UCCUAGCAAUAUUACGCAAA, the “self-splicing fitness (ln)” value runs as follows: (30 °C) -2.95 ± 0.21; (37 °C) -1.48 ± 0.12. In the case of UCCUAGCAAUAUUACGCAUA, the “self-splicing fitness (ln)” value reads like this: (30 °C) -2.82 ± 0.3; (37 °C) -2.11 ± 0.2.

For the sequence UCCUAGCAAUAUUACGCCGA, the “self-splicing fitness (ln)” value is -0.215 ± 0.11 (30 °C) and 0.0045 ± 0.11 (37 °C). The corresponding values for UCCUAGCAAUAUUACGCCGU are -1.83 ± 0.26 and -0.887 ± 0.24. The corresponding values for UCCUAGCAAUAUUACGCGAG are -3.06 ± 0.27 and -3.22 ± 0.37. Turning to UCCUAGCAAUAUUACGGACC, the “self-splicing fitness (ln)” value (30 °C) was -2.64 ± 0.27. Take UCCUAGCAAUAUUACGGACG: the “self-splicing fitness (ln)” value (30 °C) is -3.92 ± 0.4 and the “self-splicing fitness (ln)” value (37 °C) was -2.47 ± 0.39. The corresponding values for UCCUAGCAAUAUUACGGCAG are -3.38 ± 0.24 and -2.81 ± 0.22. The like results for UCCUAGCAAUAUUACGGCCG were, in that order, -4.16 ± 0.42 and -3.12 ± 0.37.

On to UCCUAGCAAUAUUACGGUUA, for which, under “37 °C”, the “self-splicing fitness (ln)” value is -2.54 ± 0.31. Regarding UCCUAGCAAUAUUACGUCAU, the “self-splicing fitness (ln)” value is, setting by setting: (30 °C) -3.25 ± 0.13; (37 °C) -3.37 ± 0.23.

Turning to UCCUAGCAAUAUUACGUGCU, the “self-splicing fitness (ln)” value runs as follows: (30 °C) -3.5 ± 0.17; (37 °C) -1.8 ± 0.2. For the sequence UCGAAGCAAUAUUACGACUU, the “self-splicing fitness (ln)” value is -1.14 ± 0.21 (30 °C) and -2.8 ± 0.23 (37 °C). Take UCGAAGCAAUAUUACGAGAU: the “self-splicing fitness (ln)” value (30 °C) is -4.08 ± 0.42 and the “self-splicing fitness (ln)” value (37 °C) is -2.66 ± 0.21. For UCGAAGCAAUAUUACGAUUU, the “self-splicing fitness (ln)” value (30 °C) was -4.4 ± 0.39 and the “self-splicing fitness (ln)” value (37 °C) was -1.97 ± 0.23. The corresponding values for UCGAAGCAAUAUUACGCAGG are -3.31 ± 0.23 and -1.8 ± 0.16. The corresponding values for UCGAAGCAAUAUUACGCCGA are -0.786 ± 0.25 and -1.16 ± 0.28. The corresponding values for UCGAAGCAAUAUUACGCCGG are -2.32 ± 0.13 and -2.18 ± 0.19. Regarding UCGAAGCAAUAUUACGGCUU, the “self-splicing fitness (ln)” value reads like this: (30 °C) -3.32 ± 0.27; (37 °C) -2.85 ± 0.22. Consider UCGAAGCAAUAUUACGGGAG, for which the “self-splicing fitness (ln)” value (30 °C) is -3.68 ± 0.33 and the “self-splicing fitness (ln)” value (37 °C) is -2.91 ± 0.31. On to UCGAAGCAAUAUUACGUAGG, for which the “self-splicing fitness (ln)” value was -1.42 ± 0.08 (30 °C) and -1.61 ± 0.1 (37 °C).

Regarding UCGAAGCAAUAUUACGUCAC, the “self-splicing fitness (ln)” value is -2.21 ± 0.12 (30 °C) and -2.69 ± 0.27 (37 °C). On to UCGAAGCAAUAUUACGUGGG, for which the “self-splicing fitness (ln)” value (30 °C) was -2.34 ± 0.14 and the “self-splicing fitness (ln)” value (37 °C) is -2.18 ± 0.18. The like results for UCGAAGCAAUAUUACGUUAU were, in that order, -4.01 ± 0.28 and -1.16 ± 0.15.

As for UCGAAGCAAUAUUACGUUCA, the “self-splicing fitness (ln)” value is, setting by setting: (30 °C) -2.59 ± 0.26; (37 °C) -1.18 ± 0.17.

Regarding UCGAAGCAAUAUUACGUUCG, the “self-splicing fitness (ln)” value was -1.54 ± 0.12 (30 °C) and -0.659 ± 0.19 (37 °C). For UCGCAGCAAUAUUACGAAUG, the “self-splicing fitness (ln)” value (30 °C) was -3.42 ± 0.23 and the “self-splicing fitness (ln)” value (37 °C) is -4.35 ± 0.42. The like results for UCGCAGCAAUAUUACGACCU were, in that order, -3.1 ± 0.41 and -1.37 ± 0.27. As for UCGCAGCAAUAUUACGAUCC, under “37 °C”, the “self-splicing fitness (ln)” value was -1.68 ± 0.36. Turning to UCGCAGCAAUAUUACGAUCU, the “self-splicing fitness (ln)” value runs as follows: (30 °C) -1.17 ± 0.21; (37 °C) -2.57 ± 0.21.

On to UCGCAGCAAUAUUACGAUGG, for which the “self-splicing fitness (ln)” value (30 °C) was -0.799 ± 0.061 and the “self-splicing fitness (ln)” value (37 °C) was -0.226 ± 0.084. With UCGCAGCAAUAUUACGAUUC, the “self-splicing fitness (ln)” value (30 °C) is -3.5 ± 0.48. For UCGCAGCAAUAUUACGCAUA, the “self-splicing fitness (ln)” value by setting is: (30 °C) -1.94 ± 0.13; (37 °C) -0.0771 ± 0.11. The corresponding values for UCGCAGCAAUAUUACGCGCC are -3.12 ± 0.17 and -1.59 ± 0.13. Regarding UCGCAGCAAUAUUACGCGGC, for the setting “37 °C”, the “self-splicing fitness (ln)” value is -1.94 ± 0.26.

As to UCGCAGCAAUAUUACGCGGG, the “self-splicing fitness (ln)” value runs as follows: (30 °C) -3.93 ± 0.3; (37 °C) -3.33 ± 0.33. On to UCGCAGCAAUAUUACGCGUA, for which the “self-splicing fitness (ln)” value reads like this: (30 °C) -1.83 ± 0.12; (37 °C) -0.123 ± 0.11. Turning to UCGCAGCAAUAUUACGCUCA, the “self-splicing fitness (ln)” value is -1.37 ± 0.085 (30 °C) and -0.529 ± 0.091 (37 °C).

The values are drawn from the supplement of paper PMC7877785.
